Results from the supplement of paper PMC9112550, “Optimization of the antimicrobial peptide Bac7 by deep mutational scanning” (BMC Biology, 2022).

System: Escherichia coli TOP10
Assay: shrunken log2 fold change of peptide-encoding DNA abundance (4.5 h post-induction vs induction); higher = less antimicrobial activity (less host growth inhibition)
Details: time post-induction: 4.5 h; library: site-saturation at positions 5, 18, 19, 20
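Further: peptides expressed intracellularly from a pBAD plasmid library in pooled LB shake-flask culture, induced with 0.3% L-arabinose, DNA abundance read by NGS, three biological replicates, DESeq2 with apeglm shrinkage.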

Sequence	shrunken log2 fold change
RRIRYRPPRLPRPRPRPPKRPRP	-0.121
RRIRERPPRLPRPRPRPVLIPRP	-0.153
RRIRYRPPRLPRPRPRPGDDPRP	-0.286
RRIRKRPPRLPRPRPRPHMEPRP	0.0155
RRIRNRPPRLPRPRPRPCPCPRP	-0.0945
RRIRCRPPRLPRPRPRPDMMPRP	0.00614
RRIRSRPPRLPRPRPRPMKAPRP	-0.00133
RRIRKRPPRLPRPRPRPTRHPRP	0.482
RRIRFRPPRLPRPRPRPIYGPRP	-0.289
RRIRMRPPRLPRPRPRPFDHPRP	-0.00544
RRIRERPPRLPRPRPRPTHPPRP	0.447
RRIRCRPPRLPRPRPRPNTSPRP	-0.343
RRIRSRPPRLPRPRPRPCMRPRP	0.0526
RRIRVRPPRLPRPRPRPAALPRP	0.0637
RRIRIRPPRLPRPRPRPETDPRP	-0.0362
RRIRHRPPRLPRPRPRPNPLPRP	-0.0904
RRIRQRPPRLPRPRPRPQVKPRP	-0.101
RRIRCRPPRLPRPRPRPVFKPRP	-0.355
RRIRWRPPRLPRPRPRPDCFPRP	1.32
RRIRSRPPRLPRPRPRPMGKPRP	-0.00865
RRIRKRPPRLPRPRPRPAEPPRP	0.429
RRIRARPPRLPRPRPRPNYRPRP	0.0835

Sequence	shrunken log2 fold change
RRIRIRPPRLPRPRPRPYLVPRP	-0.289
RRIRCRPPRLPRPRPRPRQHPRP	-0.0138
RRIRVRPPRLPRPRPRPQSWPRP	0.256
RRIRYRPPRLPRPRPRPAYLPRP	-0.244
RRIRSRPPRLPRPRPRPGLIPRP	0.142
RRIRMRPPRLPRPRPRPAFNPRP	0.144
RRIRHRPPRLPRPRPRPLCVPRP	2.97
RRIRRRPPRLPRPRPRPAPHPRP	0.858
RRIRNRPPRLPRPRPRPWFDPRP	-0.876
RRIRSRPPRLPRPRPRPWKDPRP	-0.00804
RRIRMRPPRLPRPRPRPNWWPRP	-0.0136
RRIRTRPPRLPRPRPRPCGIPRP	0.0859
RRIRRRPPRLPRPRPRPYAVPRP	-0.191
RRIRRRPPRLPRPRPRPVIGPRP	0.149
RRIRDRPPRLPRPRPRPYVFPRP	-0.18
RRIRRRPPRLPRPRPRPQCVPRP	0.0427
RRIRLRPPRLPRPRPRPWQSPRP	0.0341
RRIRERPPRLPRPRPRPYFAPRP	-0.373
RRIRTRPPRLPRPRPRPKGYPRP	-0.0992
RRIRARPPRLPRPRPRPHSDPRP	0.39
RRIRTRPPRLPRPRPRPSLEPRP	-0.0452
RRIRRRPPRLPRPRPRPNHKPRP	-0.226

Sequence	shrunken log2 fold change
RRIRCRPPRLPRPRPRPFKQPRP	-0.0402
RRIRNRPPRLPRPRPRPVMPPRP	0.267
RRIRSRPPRLPRPRPRPPSPPRP	0.376
RRIRIRPPRLPRPRPRPHRMPRP	-1.01
RRIRTRPPRLPRPRPRPNHAPRP	0.176
RRIRMRPPRLPRPRPRPHKAPRP	0.000331
RRIRDRPPRLPRPRPRPSIQPRP	-0.0741
RRIRHRPPRLPRPRPRPVYTPRP	-0.206
RRIRLRPPRLPRPRPRPVKHPRP	-0.131
RRIRERPPRLPRPRPRPFYHPRP	-1.01
RRIRVRPPRLPRPRPRPICMPRP	-0.0265
RRIRARPPRLPRPRPRPMYDPRP	0.15
RRIRKRPPRLPRPRPRPLHNPRP	0.0882
RRIRFRPPRLPRPRPRPTQWPRP	0.267
RRIRWRPPRLPRPRPRPDCCPRP	0.777
RRIRHRPPRLPRPRPRPHGKPRP	-0.038
RRIRLRPPRLPRPRPRPCQCPRP	-0.672
RRIRQRPPRLPRPRPRPMLFPRP	-0.0627
RRIRPRPPRLPRPRPRPKMAPRP	-0.0597
RRIRHRPPRLPRPRPRPMLYPRP	-1.49
RRIRSRPPRLPRPRPRPWVKPRP	0.194
RRIRPRPPRLPRPRPRPAEGPRP	0.394

Sequence	shrunken log2 fold change
RRIRSRPPRLPRPRPRPDVKPRP	-0.0928
RRIRPRPPRLPRPRPRPNCKPRP	-0.048
RRIRTRPPRLPRPRPRPKLPPRP	0.214
RRIRERPPRLPRPRPRPMKVPRP	-0.0915
RRIRFRPPRLPRPRPRPQEEPRP	-0.0228
RRIRGRPPRLPRPRPRPTGYPRP	0.559
RRIRFRPPRLPRPRPRPGVDPRP	-0.145
RRIRARPPRLPRPRPRPNLVPRP	-0.0779
RRIRGRPPRLPRPRPRPLHHPRP	0.452
RRIRTRPPRLPRPRPRPVYRPRP	-0.361
RRIRVRPPRLPRPRPRPKCWPRP	0.313
RRIRKRPPRLPRPRPRPELQPRP	0.307
RRIRNRPPRLPRPRPRPNTIPRP	-0.0529
RRIRGRPPRLPRPRPRPNLHPRP	0.303
RRIRMRPPRLPRPRPRPHDCPRP	0.0419
RRIRFRPPRLPRPRPRPYCSPRP	-0.206
RRIRWRPPRLPRPRPRPFSLPRP	0.141
RRIRLRPPRLPRPRPRPQDPPRP	-0.101
RRIRHRPPRLPRPRPRPCVKPRP	-0.121
RRIRQRPPRLPRPRPRPRDLPRP	0.412
RRIRHRPPRLPRPRPRPPMVPRP	0.0642
RRIRKRPPRLPRPRPRPVKHPRP	-0.0571

Sequence	shrunken log2 fold change
RRIRFRPPRLPRPRPRPEENPRP	-0.00844
RRIRWRPPRLPRPRPRPHPNPRP	-0.0793
RRIRERPPRLPRPRPRPRYMPRP	-0.785
RRIRSRPPRLPRPRPRPRQMPRP	0.38
RRIRARPPRLPRPRPRPRPQPRP	0.731
RRIRTRPPRLPRPRPRPLLHPRP	0.0651
RRIRSRPPRLPRPRPRPAHIPRP	-0.0188
RRIRGRPPRLPRPRPRPEVHPRP	0.141
RRIRQRPPRLPRPRPRPDSSPRP	0.00797
RRIRRRPPRLPRPRPRPFAYPRP	-0.0942
RRIRSRPPRLPRPRPRPPQDPRP	0.264
RRIRMRPPRLPRPRPRPNLVPRP	0.288
RRIRDRPPRLPRPRPRPGIVPRP	0.0969
RRIRTRPPRLPRPRPRPGQGPRP	0.0576
RRIRIRPPRLPRPRPRPDLMPRP	-0.396
RRIRIRPPRLPRPRPRPAKLPRP	-0.302
RRIRDRPPRLPRPRPRPRAIPRP	0.108
RRIRHRPPRLPRPRPRPHCCPRP	-0.156
RRIRCRPPRLPRPRPRPWMTPRP	-0.188
RRIRNRPPRLPRPRPRPKNGPRP	0.96
RRIRQRPPRLPRPRPRPFLQPRP	-0.194
